Data reported in patent US20160009772A1 (published 2016).
Primed or numbered codes have the meaning given here. FITC′ = fluorescein isothiocyanate; Ahx = NCCCCCC(=O)O

Target: N-terminal His (six histadine)-tagged IRF5 (222-425) SEQ ID NO 22 (UniProt Q13568 222-425)
Assay: TR-FRET

Chain of N-terminal His (six histadine)-tagged IRF5 (222-425) SEQ ID NO 22 (Q13568 other isoform, or with tags, fused parts or gaps): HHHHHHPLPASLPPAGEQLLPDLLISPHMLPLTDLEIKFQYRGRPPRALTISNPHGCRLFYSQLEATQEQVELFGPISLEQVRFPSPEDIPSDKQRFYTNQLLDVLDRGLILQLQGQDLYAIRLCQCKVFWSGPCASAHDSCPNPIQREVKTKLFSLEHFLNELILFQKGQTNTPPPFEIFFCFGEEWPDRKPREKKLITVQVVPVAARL

Binder | Kd [nM]
{FITC′-Ahx}-IRLQISNPYLKFIPLKRAIWLIK-NH2 [FITC-Aha-IRLQISNPYLKFIPLKRAIWLIK-NH2 (SEQ ID NO: 16)] | 930
{FITC′-Ahx}-MIILIISFPKHKDWKVILVK-NH2 [FITC-Aha-MIILIISFPKHKDWKVILVK-NH2 (SEQ ID NO: 17)] | 530
